# Assay results as given in the DeepSol protein solubility set.
# Assay: soluble on expression in E. coli; label from the status in PepcDB or PDB records
row,Sequence,soluble on expression in E. coli
1,MGSDKIHHHHHHMQIELANFEKIYTHFVGNKSDEEGITISKTPLQLNDESLKELLLNYFTHPFKNKEYNHFHHETDLNLNELYTYCSTIFADPDALYLQSINIAKHLYEQSKHPMIKGGELYVVHFNDCVIDGESTDAIGLFKSETKETFLKIFPQGDGYEAVSDKGIDIRKLDKGCFIINSEKENGYKVCVVDQTNKSSDAQYWKDDFLKIVSRNDSFHYTQNYMNMCKSFVTDQMPETFEVSKTDQIDLLNRSVNYFKKNESFDMQAFTNDVIQDEGLIDSFKEYKNKFQEDHQMPMVDEFEISTPAVKKYAKVFKSVLKLDRNFHIYIHGDKDLIERGRDDASGMNFYKIYYKEES,not soluble
2,MGSDKIHHHHHHMQILLANPRGFCAGVDRAISIVERALELFGTPIYVRHEVVHNRYVVNGLRERGAIFIEQIEDVPDGAILIFSAHGVSQAVRNEAKNRDLTVFDATCPLVTKVHMEVARASKKGVEAILIGHAGHPEVEGTMGQYSNADGGMYLVESPDDVWQLQVKDEKNLCFMTQTTLSVDDTYAVIDALRERFPRIIGPRKDDICYATTNRQEAVRHLSDKADVVFVVGSKNSSNSNRLAELAQRAGKAAYLIDSADDIQESWLTGASYVGVTAGASAPDILVQQVIQRLKELGGKVAVEMQGREENIVFEVPKELRVEVKQID,not soluble
3,MGSDKIHHHHHHMQLRALMYFDELVRTNSMRAAAENLNVAPTAVSRQIENLEYYFGSPLVERSSRGVKLTAAGELLAARAGKTLRELDHVHRLIDDLKGLQRGRVTVYANGATVANLLAPVLAQFSLKYPKLRFEVHITSARQAMEALGAAEADLVVSLFAPKLSGVKVRSRTRISYDVIFPAGHALAAQPEVSLKELAGMPLALPDKSFAARQAFDTLFADAGIELDPVFITSSLEMLKELVLGNAAATLLPALSVAREIRSGQMVAVPLAGKKGIHTQIDLCVAPDRQLSFAASKLADFIERFMREATAG,not soluble
4,MGSDKIHHHHHHMQNATLPLPLQSPLLAASGENRVRHGFFTRQGGVSEGLYQGLNVGLGSHDEPEKVQENRRRVTQWFGLSADRLATVHQVHSPDVVVVDDNYDGNRPQADAMVTATPGFVLGVLSADCGPILFADAQAGVVGAAHAGWKGALFGVLENTIEAMVKLGASRERIAASLGPSISQDNYEVGPEYVARFTDIDPAYADYFAATERQGHALFDLKQFTIDRLTKAGVKAENLGLCTYPDEHRFYSYRRTTHRAEPDYGRQISAIAILED,not soluble
5,MGSDKIHHHHHHMQNKNKTVVKSMALLNLFLHKPSLTLSELVSLTGMPKTSVHRMVSSLEEMGFLSRDASGAYSLGLVFLEFGQLVADRLDIRKIAKPVMEELCREVDEAVQLIMRDGNEAIYVEKIEGTQTVRLYTAIGRRSPLYAGACARSILSFLPREEIEAYIKQTELISIGSGTITDPEKLLQEIDASVQNGYTVSYSELENYTAAIGAPIFNHERQVAAGISIAGFEARFTEDRLPYLTEKVKDAALQISRK,not soluble
6,MGSDKIHHHHHHMQNLDALLIFARVAEMTSFTRAAESLGIQKGRVSMVIRKLERDVGVALLHRTTRSVQLTEDGRAFYSRARDLLAEVQELQSMFSGNGTRLRGRLRVDMPTELARSVVVPALPQLMAAHPELELELSSTDRRVDLVQEGFDCVIRLGPITDDTLIARPLGKLRMTNAASPGYLARYGIPHTLDDLRTQGHRMVHYTLTLGARHPGWEYPNGDGYASLPLPSAMQVNSVQTYHAAGLAGIGLIQAGYSALAHHIESGALVEVLPDLRPEPLAASLVVAHRRNLSPRVRAFMDWIEGVLAPYLD,not soluble
7,MGSDKIHHHHHHMQNPPPPFNQNHLLAALPPAELERLKPHLELVHMPLGDVLCESGGRLSYVYFPTSAIISLHYILENGSSSEVAGVGNEGLLGISLFMGGENTPTWATVQTAGYCYRLKGPLLLQEFNQGGPLQRVLLRYTQALITQISQTAVCNRHHTIEQQLCRWLLLTLDRLNSQELVMTQELIASMLGVRREGITEAAGKLQQAEIIRYRRGHITVLNRAGLEGHVCECYEVVKKEFERLFRDVKKS,not soluble
8,MGSDKIHHHHHHMQSFKIIKPIHILTPYVRYYWILEDGADVSVSERTLPTGCIQLVFHRGKRLLLVGKKESQPQAFICGQCLNFSDVMSAGKIEMITVVFQPYAARAILQLPLKFFYGELIAVDAIADLELSILSRKVIEADDHETCIRLIEQFLIHRLYRFEGYEYNLKRISAVLHQINEQAKTNISELSETACLSSKQFNRIFLDYVGATPKEFLRIVRMQRALFKVQQNPSISFAQLAYECGFSDQSHMIKEFKLFSGYTPTEYLSLCAPYSDYFSE,not soluble
9,MGSDKIHHHHHHMQSQELERIARQIRLRDVQAVFEAGAGHVGGEMSAIDIMTALYFRVLRIWPNDPKNPARDRFVLSKGHTACALYVTLAKRGFIPEEEISTFLQPNSRLNGHPNCNKVPGVETNTGPLGHGLPVAVGMATAAKLSGEDYHTYVMTGDGEMQEGSNWEAIMSAAQFKLNNLTLVIDHNRFQQGAAIADTNDVAPLRPKLEAFGWEVTEINGNAMAEVVPALEHRGNRPHCIVAHTNKGHGISFMQDRVDWHHKVPSKEQYEIAVKELSEAL,not soluble
10,MGSDKIHHHHHHMQWTEEQLPAIHSFAKKLLVQAFAGTGKTTTLVGYATHNSSVKMLYLCYNKAVEIAAKNRFPRNVTCKTAHGLAYAVYGSQYKHKQAGNLRLTDIARTINTQDWELAKDIVSTLNAFMASKDLELLEDHFVRFQSNRTLTSVQQQYMSKALNLTRDVWDKMVDIQDRSVSMTHDGYLKLYQMSQPDLSQRFGAILLDEGQDVNPVIANLVQIQKITQVTVGDRHQQLYRFRGAVDALNSPAMKDAEKHFLTQSFRFGPAVAYVANVILSFKGEKIPLQGLGQPTLVKRALPEDLPHRTYLHRTVSGVIENALRLVNQDHRMQWIGGIDSYSLRDLEDLFYFSRHMNDQVQQRKLLTDYADYDQYVVIAKATQDPEMLRSIKMIENYPDLPKRIEQLRGASVTSELDATVTLSTAHRAKGLEWDFVGLYDDFSADPLSPDIDAGKRDDELNLLYVAVTRAMKILAVNSLVIDIMQRFKDMKQRSRP,not soluble
11,MGSDKIHHHHHHMQYTELVPGTLIRRYKRFLADVALASGDVVVAHCPNTGSMRAVDVPGCRVWLSPSRNPARKLAWTWELIELPMPDAPPALVSVHTGRANALVAQALQEARIPELAGYDTHKREVRVADARLDFRLSTAHAAAYVEVKQVTLREHDGHGYFPDSVSERGRRHLEALAARVAEGDRAVLLFCVAHTGIDAVAPAAHLDPAYAETLRRVAAQGVEVLAYGMSATWTHDGVPGDIALTRALPVSLERRLASATPLSD,not soluble
12,MGSDKIHHHHHHMRAVTAQAITEAVAKLCKEACYYVTPDMYAAFKKAEETEVSPLGKHILGRIIENADIAKREDMPICQDTGMTVVFVEIGQEVKIEGGYIEDAINAGVAKGYTEGYLRKSVVGEPLFNRANTKDNTPAVIHTRIVPGDKLKLKVCPKGFGSENKSVLKMLVPADGLEGVKKVFLEAVKLAGPNACPPMVIGVGIGGTMEKAAILAKKAAVRSVDSYNEHPDYAQLEKDLLEMACATGVGPQGLGGINTAVKVNIEWYPTHIAGLPVAVNINCHAARHADVTL,not soluble
13,MGSDKIHHHHHHMRDSTQLPVTRRMLPSLYQSICLILCSQNLSGINLSGISPSSISLGPSTLFRHTRLSQRLAKFQIPRPIKHQSQRFSIFALACFVAATLSGCANSLETCARTELKLTWAEPAELQATVTILSSDEFEGRKTQTQGAAKSRDYIKQQFESLNLQPWGADFIVPFEYQTFFTQETGANVVATAMATEPTNRWRIIVAHYDHLGMSGSKIYHGADDNASGVAAMLAIAKHWQQQFALQPNTLPKVNLMFVATDAEEPGLYGSIALVEQLKTRLPEATFELMINLDMVSHPGRPYGIYLEGSRNFTQFNQFKSLLNQQNRLCIKLTHPKPVGRSIQSTDWLRASDHYPFHKANIPWLYFGVPTHPQYHTPEDTVATIDITFLAAVTESAFELLQLNAEYLKN,not soluble
14,MGSDKIHHHHHHMREKIKLELERIEKENDVKILFAVESGSRVWGFPSKDSDYDVRFVYMHPVEWYLSIHDKRDVIEYPISDDLDISGWDIKKALQLFAKSNPALLEWIRSPIFYSKNSNFPEQLQQMSEKNFDPKATIYHYLHMASKNYREFLQGENVKLKKYFYVLRPILACKWLEEKTTLPPVEFDRLITELSIERSVLDEIEQLLIKKKAGTELDVGLKIEVLNQFLEEQIHYYQQYVKGIEKGSGIDIESLNTLFRDMLFAVYEKEHK,not soluble
15,MGSDKIHHHHHHMRGCFSVTGVEDVCERLGVPCVPLDDPVEVSGEVFQKIKISRKVLEADKVVNLPKLKTHSQMVMTLGVKNTFGCVVGLEKSSWHMRAKNYDDFANLLIDIHRIVSPVLTILDGVEGMEGNGPTNGKKKHFGLVAVSKNAFALDDAVCKALGIDHVVYTVQHARKRRVVPDYEIVGTFHASIQLPSTVSTLDRLSRTFSRFFVKYPKIDTRKCVKCRLCEERCPASAIDISSQRIDYQKCIRCYVCHEVCPQDAIKLVRRLV,not soluble
16,MGSDKIHHHHHHMRGRCPVSRAMMPTGPSGVEVSSVEMPGTKGVSVNLTRSLDGTVFTTLTRLSESVDMIDLVNEAVVQSLDEIAGYEAQLPSAKIATAMCFRAMQSITDYAPTTIEAADRLISNAYEIDPQPVFLAWRAYLRTFLLGESGGGNSQAISEEMERFINLAEEREPGNSIILSLAAFIRSMWLLSSEDALDLAQRSHALNPSNPYGISYLGMVHTHLGNFEEGYRLTRRANALTVPRGAKSSIRYVAMRSAACAGRYTEAIKIGEALGRDAPHFVAPKRLMGLLYMKCGRVADAEAMVETLRQHEPDYSMEKMRDAFRASPLLHRSKLGKAG,not soluble
17,MGSDKIHHHHHHMRHLKAFYVFHITAESSSYSQAAEKLHITHGAVSKQIKLLENHLSQILFYKQGRGMCLTQEGELLKRYTDIAFNTLDSGVKQLTRESHHYLEVSCEPTLTMRWLMPRLASFFQLTGIDVRLSTAGGPVKLAESGLSLAIRRDDFHIPPEYNKHNLVSEWAGPVFSPEYWCQIQQNWGDIVLLHSDSRPSAWSDWSQRSGHNFSTNKSKSFEHFYFCLQAAVDGLGGAIGSYPLIVDDLTSGRLVAPFGFIPSGHHYVLLSHTEKLVNNELSFFNWLEDTLSLCQPKTAKAAKPV,not soluble
18,MGSDKIHHHHHHMRHTAVLLISCPDQRGLVAAIADFLLAHRANILHADQHQDAELKLFLMRVEWDLAGFNLDLRDFATAFQPIAERFGMTWRLAESSRKPRMAVFVSKFDHCLADLLYRYQSGELHCELPIILSNHEDTRWLADAYRVPYQHMAVTKESKHETEQIQLAILRDQKIDFIVLARYMQVLSGDFIRHFPNRIINIHHSFLPAFHGAKPYHRAFERGVKLIGATAHYVTETLDDGPIIEQDVARISHRDHIDDLIHKGADLEKVVLSRAVKWHLDNRVLVYANKTVVFD,not soluble
19,MGSDKIHHHHHHMRIDTVNVLLEALPYIKEFYGKTFVIKFGGSAMKQENAKKAFIQDIILLKYTGIKPIIVHGGGPAISQMMKDLGIEPVFKNGHRVTDEKTMEIVEMVLVGKINKEIVMNLNLHGGRAVGICGKDSKLIVAEKETKHGDIGYVGKVKKVNPEILHALIENDYIPVIAPVGIGEDGHSYNINADTAAAEIAKSLMAEKLILLTDVDGVLKDGKLISTLTPDEAEELIRDGTVTGGMIPKVECAVSAVRGGVGAVHIINGGLEHAILLEIFSRKGIGTMIKELEG,not soluble
